Experimental data taken from paper PMC8923076 (Cell chemical biology, 2021).

Target: GST-fused GAS41 YEATS domain (residues 1-148) (human, UniProt O95619 1-148)
Assay: fluorescence polarisation

Sequence of GST-fused GAS41 YEATS domain (residues 1-148) (O95619 1-148): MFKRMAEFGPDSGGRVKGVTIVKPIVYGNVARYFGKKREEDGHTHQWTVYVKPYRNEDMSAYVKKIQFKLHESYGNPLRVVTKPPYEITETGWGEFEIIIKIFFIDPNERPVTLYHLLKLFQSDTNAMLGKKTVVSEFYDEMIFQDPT

IC50: 50 µM
Binder: GGKAPRKQLATKAARKSAP (N-terminal acetyl; acetyl-lysine at K18 and K27; C-terminal amide) [H3K18acK27ac peptide]
